# From publication PMC3510514 (Nucleic Acids Research, 2012)
# B1: FLAG-Spartan PIP mutant YF331,332AA (natural protein, human, UniProt Q9H040 1-489, looked up)
# chain: MDDDLMLALRLQEEWNLQEAERDHAQESLSLVDASWELVDPTPDLQALFVQFNDQFFWGQLEAVEVKWSVRMTLCAGICSYEGKGGMCSIRLSEPLLKLRPRKDLVETLLHEMIHAYLFVTNNDKDREGHGPEFCKHMHRINSLTGANITVYHTFHDEVDEYRRHWWRCNGPCQHRPPYYGYVKRATNREPSAHDYWWAEHQKTCGGTYIKIKEPENYSKKGKGKAKLGKEPVLAAENKDKPNRGEAQLVIPFSGKGYVLGETSNLPSPGKLITSHAINKTQDLLNQNHSANAVRPNSKIKVKFEQNGSSKNSHLVSPAVSNSHQNVLSNAAPRVSFANQKAFRGVNGSPRISVTVGNIPKNSVSSSSQRRVSSSKISLRNSSKVTESASVMPSQDVSGSEDTFPNKRPRLEDKTVFDNFFIKKEQIKSSGNDPKYSTTTAQNSSSSSSQSKMVNCPVCQNEVLESQINEHLDWCLEGDSIKVKSEESL
# notes: Spartan/C1orf124, human; cDNA clone bought from ImaGenes; also called PIP mutant Spartan; YF331,332AA Spartan; source: S. cerevisiae BJ5464, purified (glutathione-Sepharose, eluted by PreScission protease); not shown: GST, N-terminal, cleaved; FLAG, N-terminal, kept
# Target: T1, GST-ubiquitin (human, UniProt P0CG48 1-76)
# T1 construct: ubiquitin, the cut product of the polyubiquitin precursor; also called GST-tagged ubiquitin; source: purified
# Assay: pull-down; GST-ubiquitin (3 μg) on glutathione-sepharose beads, FLAG-Spartan (1 μg) in solution; 4 h at 4°C, buffer I (40 mM Tris HCl pH 7.5, 85 mM NaCl, 0.1 mM DTT, 10% glycerol, 0.01% NP40); immunoblot with anti-FLAG and anti-GST
# Conditions: both partners purified
binder,measurement,value
B1,binding result,binds
